# Measured values from doi:10.1101/2025.03.06.641801, “DMBT1 promotes SARS-CoV-2 infection and its SRCR-derived peptide inhibits SARS-CoV-2 infection” (bioRxiv, 2025).
# B1: peptide 7 (CQGRVEVLYRGSWGTV), SRCR-domain-derived peptide of DMBT1 (peptide)
# peptide: CQGRVEVLYRGSWGTV
# notes: Free N-terminal cysteine; earlier synthetic batches formed disulfide-linked homodimers in PBS; also called Pep7
# Biological target: the molecule itself
# Test: reverse-phase HPLC with TOF mass detection; peptide 7 of an earlier (old) synthetic batch in PBS; Agilent HPLC Infinity II 1290 with TOF 6230, 5-65% acetonitrile/water with 0.1% TFA, 40 C
protein,measurement,value
B1,binding result,binds
